Numbered stars: 1 amine (or outer) side, 2 acyl side, 3 side chain; on linkers, the order of the positions; unused ones are H or OH. Bridge positions count the residues as written; N and C are the ends. * marks the point of attachment. C20 diacid = O=C(O)CCCCCCCCCCCCCCCCCCC(=O)*; γGlu = O=C(O)[C@H](CCC(=O)[*:2])N[*:1]; AEEA = NCCOCCOCC(=O)O
T1: human amylin receptor (amylin 3(a) receptor: human calcitonin receptor plus RAMP-3) (human, UniProt P30988 25-474; O60896 24-148, limits assumed)
T1 construct: whole, on cells; the functional assay (Assay IIa) used the whole cells; also called hAmylin-R; hAmylinR
T1 sequence (looked up) 1: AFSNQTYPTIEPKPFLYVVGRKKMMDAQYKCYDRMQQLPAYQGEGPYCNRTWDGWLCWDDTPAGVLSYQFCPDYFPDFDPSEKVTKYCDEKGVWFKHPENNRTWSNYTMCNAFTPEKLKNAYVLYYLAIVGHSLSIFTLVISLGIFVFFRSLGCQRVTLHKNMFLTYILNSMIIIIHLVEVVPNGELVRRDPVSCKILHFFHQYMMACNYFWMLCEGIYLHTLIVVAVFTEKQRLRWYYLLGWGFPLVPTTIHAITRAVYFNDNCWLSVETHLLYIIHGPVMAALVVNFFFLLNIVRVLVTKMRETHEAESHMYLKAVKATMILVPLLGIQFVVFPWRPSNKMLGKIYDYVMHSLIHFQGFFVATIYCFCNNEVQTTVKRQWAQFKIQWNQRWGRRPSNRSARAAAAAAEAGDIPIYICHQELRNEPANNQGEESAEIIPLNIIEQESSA
T1 sequence (looked up) 2: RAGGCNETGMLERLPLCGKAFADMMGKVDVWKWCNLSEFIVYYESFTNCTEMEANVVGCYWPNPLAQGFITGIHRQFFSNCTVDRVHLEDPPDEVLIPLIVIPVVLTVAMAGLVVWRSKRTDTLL

T2: human calcitonin receptor (human, UniProt P30988 25-474)
T2 sequence (looked up): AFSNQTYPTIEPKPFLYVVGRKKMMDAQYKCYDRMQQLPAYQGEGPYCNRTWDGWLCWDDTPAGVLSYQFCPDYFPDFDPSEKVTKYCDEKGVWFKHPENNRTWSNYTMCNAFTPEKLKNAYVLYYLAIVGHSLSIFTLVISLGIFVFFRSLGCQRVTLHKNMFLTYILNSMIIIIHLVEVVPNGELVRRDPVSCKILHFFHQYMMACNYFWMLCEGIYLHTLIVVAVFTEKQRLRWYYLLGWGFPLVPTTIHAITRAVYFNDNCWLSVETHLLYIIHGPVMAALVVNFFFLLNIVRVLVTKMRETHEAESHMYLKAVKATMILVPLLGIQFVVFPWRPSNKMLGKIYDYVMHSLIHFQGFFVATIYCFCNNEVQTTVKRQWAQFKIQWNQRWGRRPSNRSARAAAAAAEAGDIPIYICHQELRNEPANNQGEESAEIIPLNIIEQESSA


Experiments:
[1] = biological target: T1, human amylin receptor (amylin 3(a) …); test: SPA competition binding, membranes of Amylin 3(a)/CRE-luc BHK cells, displacement of 125I-rat amylin (Assay V)
Procedure: The binding assay was performed using scintillation proximity assay (SPA) beads (RPNQ0001) from PerkinElmer and cell membranes from the Amylin 3(a)/CRE-luc cells (as described in Assay (II)) were used. Membranes were prepared in the following way; the cells were rinsed with PBS and incubated with Versene for approximately 5 min before harvesting. The cells were flushed with PBS and the cell-suspension was centrifuged for 5 min at 1000 rpm. Cells were homogenized (ultrathurrax) in a buffer containing 20 mM Na-HEPES and 10 mM EDTA (pH 7.4) and centrifuged at 20.000 rpm for 15 min. The resulting pellet was resuspended, homogenized and centrifuged (20.000 rpm, 15 min) in a buffer containing 20 mM Na-HEPES and 0.1 mM EDTA (pH 7.4, buffer 2). The resulting pellet was resuspended in buffer 2 and protein concentration was measured (BCA protein Assay, Pierce). The homogenate was kept cold during the whole procedure. The membranes were kept at −80° C. until use. The assay was performed in a 384 well Optiplate (PerkinElmer) in a total volume of 40 ul. Membranes were mixed with SPA beads. Final concentration of membranes 35 ng/μL final and SPA beads was 0.05 mg/well. Test-compounds were dissolved in DMSO and further diluted in assay buffer (50 mM Hepes, pH 7.4, 1 mM CaCl2, 5 mM MgCl₂, 0.1% OA and 0.02% Tween20). […] The final mixture was incubated with shaking at 400 rpm for 120 min at 25° C. prior to centrifugation (1500 rpm, 10 min). Samples were analyzed on TopCounter™ (Packard). The IC₅₀ was calculated using (one site binding competition analysis) GraphPad Prism5 as a measure of receptor affinity.

[2] = biological target: T2, human calcitonin receptor; test: cell-based or functional assay
[3] = biological target: T1, human amylin receptor (amylin 3(a) …); test: cell-based or functional assay

Row | Binder | IC50 [1] [nM] | Ratio hCT/hAmylin funct. (hCTR EC50 against hAmylin-R EC50) [2] | hCTR funct. EC50 [2] [nM] | hAmylin-R funct. EC50 [3] [nM]
1 | KCNTATCATQRLAEFLRHSSPNFGAIPSSTNVGSNTY (C20 diacid-gGlu on the alpha amino group of the N-terminal residue; Cys2-Cys7 disulfide and C-terminal amide as in human amylin, also called compound 9) [N^α1-[(4S)-4-carboxy-4-(19-carboxynonadecanoylamino)butanoyl]-[Glu14,Arg17,Pro21,Pro27]-h-amylin] | 0.143 | 7.4 | 1.29 | 0.175
2 | {C20 diacid-γGlu-AEEA-AEEA}-KCNTATCATQRLAEFLRHSSPNFGAIPSSTNVGSNTP-NH2 (disulfide 2-7; SMILES CC[C@H](C)[C@H](NC(=O)[C@H](C)NC(=O)CNC(=O)[C@H](Cc1ccccc1)NC(=O)[C@H](CC(N)=O)NC(=O)[C@@H]1CCCN1C(=O)[C@H](CO)NC(=O)[C@H](CO)NC(=O)[C@H](Cc1c[nH]cn1)NC(=O)[C@H](CCCNC(=N)N)NC(=O)[C@H](CC(C)C)NC(=O)[C@H](Cc1ccccc1)NC(=O)[C@H](CCC(=O)O)NC(=O)[C@H](C)NC(=O)[C@H](CC(C)C)NC(=O)[C@H](CCCNC(=N)N)NC(=O)[C@H](CCC(N)=O)NC(=O)[C@@H](NC(=O)[C@H](C)NC(=O)[C@@H]1CSSC[C@H](NC(=O)[C@H](CCCCN)NC(=O)COCCOCCNC(=O)COCCOCCNC(=O)CC[C@H](NC(=O)CCCCCCCCCCCCCCCCCCC(=O)O)C(=O)O)C(=O)N[C@@H](CC(N)=O)C(=O)N[C@@H]([C@@H](C)O)C(=O)N[C@@H](C)C(=O)N[C@@H]([C@@H](C)O)C(=O)N1)[C@@H](C)O)C(=O)N1CCC[C@H]1C(=O)N[C@@H](CO)C(=O)N[C@@H](CO)C(=O)N[C@H](C(=O)N[C@@H](CC(N)=O)C(=O)N[C@H](C(=O)NCC(=O)N[C@@H](CO)C(=O)N[C@@H](CC(N)=O)C(=O)N[C@H](C(=O)N1CCC[C@H]1C(N)=O)[C@@H](C)O)C(C)C)[C@@H](C)O, also called compound 20) | 0.217 | 3.6 | 0.285 | 0.08
3 | {C20 diacid-γGlu}-KCNTATCATQRLANFLRHSSPNFGAIPSSTNVGPETY-NH2 (disulfide 2-7; SMILES CC[C@H](C)[C@H](NC(=O)[C@H](C)NC(=O)CNC(=O)[C@H](Cc1ccccc1)NC(=O)[C@H](CC(N)=O)NC(=O)[C@@H]1CCCN1C(=O)[C@H](CO)NC(=O)[C@H](CO)NC(=O)[C@H](Cc1c[nH]cn1)NC(=O)[C@H](CCCNC(=N)N)NC(=O)[C@H](CC(C)C)NC(=O)[C@H](Cc1ccccc1)NC(=O)[C@H](CC(N)=O)NC(=O)[C@H](C)NC(=O)[C@H](CC(C)C)NC(=O)[C@H](CCCNC(=N)N)NC(=O)[C@H](CCC(N)=O)NC(=O)[C@@H](NC(=O)[C@H](C)NC(=O)[C@@H]1CSSC[C@H](NC(=O)[C@H](CCCCN)NC(=O)CC[C@H](NC(=O)CCCCCCCCCCCCCCCCCCC(=O)O)C(=O)O)C(=O)N[C@@H](CC(N)=O)C(=O)N[C@@H]([C@@H](C)O)C(=O)N[C@@H](C)C(=O)N[C@@H]([C@@H](C)O)C(=O)N1)[C@@H](C)O)C(=O)N1CCC[C@H]1C(=O)N[C@@H](CO)C(=O)N[C@@H](CO)C(=O)N[C@H](C(=O)N[C@@H](CC(N)=O)C(=O)N[C@H](C(=O)NCC(=O)N1CCC[C@H]1C(=O)N[C@@H](CCC(=O)O)C(=O)N[C@H](C(=O)N[C@@H](Cc1ccc(O)cc1)C(N)=O)[C@@H](C)O)C(C)C)[C@@H](C)O, also called compound 29) | 0.577 | 8.7 | 0.857 | 0.099
